The target of this assay is NTR 2.0 (engineered nitroreductase; Vibrio vulnificus NfsB F70A/F108Y) (Vibrio vulnificus (CMCP6)). Put plainly: crystal structure; hanging-drop vapour diffusion at 291 K; protein 10 mg/mL in 40 mM Tris-HCl pH 7.0, 200 mM NaCl; precipitant 0.1 M sodium acetate trihydrate pH 4.5, 32% (v/v) PEG 300; two molecules in the asymmetric unit; FMN and acetate bound.

Turning to “NTR 2.0 (engineered nitroreductase; Vibrio vulnificus NfsB F70A/F108Y) (enzyme)”, the stoichiometry N is 2.

These data come from article PMC10095097.
